Columns and labels:
Assay in all cases: capture ELISA on coated 1.14.4; relative to silent alanine substitutions
[1] = biological target: T1, hPD-L1_ECD.His point mutant K105A (human, UniProt Q9NZQ7 19-238)
T1 construct: extracellular domain
Method in brief: (§1)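 Capture ELISA in which supernatant containing quantified PD-L1 alanine mutant was detected with HRP anti-His antibody. Absorbance was normalized to the average of control mutants. Epitope residues were called at binding fold change <0.55.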

[2] = biological target: T2, hPD-L1_ECD.His point mutant N35A (human, UniProt Q9NZQ7 19-238)
T2 construct: extracellular domain
Method in brief: as §1

[3] = biological target: T3, hPD-L1_ECD.His point mutant K75A (human, UniProt Q9NZQ7 19-238)
T3 construct: extracellular domain
Method in brief: as §1

[4] = biological target: T4, hPD-L1_ECD.His point mutant L142A (human, UniProt Q9NZQ7 19-238)
T4 construct: extracellular domain
Method in brief: as §1

[5] = biological target: T5, hPD-L1_ECD.His point mutant S34A (human, UniProt Q9NZQ7 19-238)
T5 construct: extracellular domain
Method in brief: as §1

[6] = biological target: T6, hPD-L1_ECD.His point mutant T20A (human, UniProt Q9NZQ7 19-238)
T6 construct: extracellular domain
Method in brief: as §1

[7] = biological target: T7, hPD-L1_ECD.His point mutant Q47A (human, UniProt Q9NZQ7 19-238)
T7 construct: extracellular domain
Method in brief: as §1

[8] = biological target: T8, hPD-L1_ECD.His point mutant V111A (human, UniProt Q9NZQ7 19-238)
T8 construct: extracellular domain
Method in brief: as §1

[9] = biological target: T9, hPD-L1_ECD.His point mutant D215A (human, UniProt Q9NZQ7 19-238)
T9 construct: extracellular domain
Method in brief: as §1

[10] = biological target: T10, hPD-L1_ECD.His point mutant L231A (human, UniProt Q9NZQ7 19-238)
T10 construct: extracellular domain
Method in brief: as §1

[11] = biological target: T11, hPD-L1_ECD.His point mutant N236A (human, UniProt Q9NZQ7 19-238)
T11 construct: extracellular domain
Method in brief: as §1

[12] = biological target: T12, hPD-L1_ECD.His point mutant Y118A (human, UniProt Q9NZQ7 19-238)
T12 construct: extracellular domain
Method in brief: as §1

[13] = biological target: T13, hPD-L1_ECD.His point mutant A121G (human, UniProt Q9NZQ7 19-238)
T13 construct: extracellular domain
Method in brief: as §1

[14] = biological target: T14, hPD-L1_ECD.His point mutant Y28A (human, UniProt Q9NZQ7 19-238)
T14 construct: extracellular domain
Method in brief: as §1

[15] = biological target: T15, hPD-L1_ECD.His point mutant Q77A (human, UniProt Q9NZQ7 19-238)
T15 construct: extracellular domain
Method in brief: as §1

[16] = biological target: T16, hPD-L1_ECD.His point mutant R212A (human, UniProt Q9NZQ7 19-238)
T16 construct: extracellular domain
Method in brief: as §1

[17] = biological target: T17, hPD-L1_ECD.His point mutant D73A (human, UniProt Q9NZQ7 19-238)
T17 construct: extracellular domain
Method in brief: as §1

[18] = biological target: T18, hPD-L1_ECD.His point mutant T37A (human, UniProt Q9NZQ7 19-238)
T18 construct: extracellular domain
Method in brief: as §1

[19] = biological target: T19, hPD-L1_ECD.His point mutant A232G (human, UniProt Q9NZQ7 19-238)
T19 construct: extracellular domain
Method in brief: as §1

[20] = biological target: T20, hPD-L1_ECD.His point mutant K41A (human, UniProt Q9NZQ7 19-238)
T20 construct: extracellular domain
Method in brief: as §1

[21] = biological target: T21, hPD-L1_ECD.His point mutant S80A (human, UniProt Q9NZQ7 19-238)
T21 construct: extracellular domain
Method in brief: as §1

[22] = biological target: T22, hPD-L1_ECD.His point mutant Q66A (human, UniProt Q9NZQ7 19-238)
T22 construct: extracellular domain
Method in brief: as §1

[23] = biological target: T23, hPD-L1_ECD.His point mutant K185A (human, UniProt Q9NZQ7 19-238)
T23 construct: extracellular domain
Method in brief: as §1

[24] = biological target: T24, hPD-L1_ECD.His point mutant N96A (human, UniProt Q9NZQ7 19-238)
T24 construct: extracellular domain
Method in brief: as §1

[25] = biological target: T25, hPD-L1_ECD.His point mutant D103A (human, UniProt Q9NZQ7 19-238)
T25 construct: extracellular domain
Method in brief: as §1

[26] = biological target: T26, hPD-L1_ECD.His point mutant I54A (human, UniProt Q9NZQ7 19-238)
T26 construct: extracellular domain
Method in brief: as §1

T9 sequence (Q9NZQ7 19-238 D215A): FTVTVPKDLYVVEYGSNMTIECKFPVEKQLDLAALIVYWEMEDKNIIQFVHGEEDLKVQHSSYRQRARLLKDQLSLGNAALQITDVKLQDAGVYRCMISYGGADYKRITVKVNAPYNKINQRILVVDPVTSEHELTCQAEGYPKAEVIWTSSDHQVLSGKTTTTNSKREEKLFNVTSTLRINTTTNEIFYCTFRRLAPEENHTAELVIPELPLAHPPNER
T26 sequence (Q9NZQ7 19-238 I54A): as the sequence (Q9NZQ7 19-238 D215A) above, with I36A, A197D counted along it
T10 sequence (Q9NZQ7 19-238 L231A): as the sequence (Q9NZQ7 19-238 D215A) above, with A197D, L213A counted along it
T23 sequence (Q9NZQ7 19-238 K185A): as the sequence (Q9NZQ7 19-238 D215A) above, with K167A, A197D counted along it
T15 sequence (Q9NZQ7 19-238 Q77A): as the sequence (Q9NZQ7 19-238 D215A) above, with Q59A, A197D counted along it
T16 sequence (Q9NZQ7 19-238 R212A): as the sequence (Q9NZQ7 19-238 D215A) above, with R194A, A197D counted along it
T6 sequence (Q9NZQ7 19-238 T20A): as the sequence (Q9NZQ7 19-238 D215A) above, with T2A, A197D counted along it
T14 sequence (Q9NZQ7 19-238 Y28A): as the sequence (Q9NZQ7 19-238 D215A) above, with Y10A, A197D counted along it
T1 sequence (Q9NZQ7 19-238 K105A): as the sequence (Q9NZQ7 19-238 D215A) above, with K87A, A197D counted along it
T8 sequence (Q9NZQ7 19-238 V111A): as the sequence (Q9NZQ7 19-238 D215A) above, with V93A, A197D counted along it
T25 sequence (Q9NZQ7 19-238 D103A): as the sequence (Q9NZQ7 19-238 D215A) above, with D85A, A197D counted along it
T20 sequence (Q9NZQ7 19-238 K41A): as the sequence (Q9NZQ7 19-238 D215A) above, with K23A, A197D counted along it
T17 sequence (Q9NZQ7 19-238 D73A): as the sequence (Q9NZQ7 19-238 D215A) above, with D55A, A197D counted along it
T12 sequence (Q9NZQ7 19-238 Y118A): as the sequence (Q9NZQ7 19-238 D215A) above, with Y100A, A197D counted along it
T21 sequence (Q9NZQ7 19-238 S80A): as the sequence (Q9NZQ7 19-238 D215A) above, with S62A, A197D counted along it
T13 sequence (Q9NZQ7 19-238 A121G): as the sequence (Q9NZQ7 19-238 D215A) above, with A103G, A197D counted along it
T4 sequence (Q9NZQ7 19-238 L142A): as the sequence (Q9NZQ7 19-238 D215A) above, with L124A, A197D counted along it
T18 sequence (Q9NZQ7 19-238 T37A): as the sequence (Q9NZQ7 19-238 D215A) above, with T19A, A197D counted along it
T24 sequence (Q9NZQ7 19-238 N96A): as the sequence (Q9NZQ7 19-238 D215A) above, with N78A, A197D counted along it
T11 sequence (Q9NZQ7 19-238 N236A): as the sequence (Q9NZQ7 19-238 D215A) above, with A197D, N218A counted along it
T2 sequence (Q9NZQ7 19-238 N35A): as the sequence (Q9NZQ7 19-238 D215A) above, with N17A, A197D counted along it
T7 sequence (Q9NZQ7 19-238 Q47A): as the sequence (Q9NZQ7 19-238 D215A) above, with Q29A, A197D counted along it
T19 sequence (Q9NZQ7 19-238 A232G): as the sequence (Q9NZQ7 19-238 D215A) above, with A197D, A214G counted along it
T5 sequence (Q9NZQ7 19-238 S34A): as the sequence (Q9NZQ7 19-238 D215A) above, with S16A, A197D counted along it
T3 sequence (Q9NZQ7 19-238 K75A): as the sequence (Q9NZQ7 19-238 D215A) above, with K57A, A197D counted along it
T22 sequence (Q9NZQ7 19-238 Q66A): as the sequence (Q9NZQ7 19-238 D215A) above, with Q48A, A197D counted along it

B1: 1.14.4 (antibody, V domains shown)
VH: EVQLLESGGGLVQPGGSLRLSCAASGFTFSSYAMSWVRQAPGKGLEWVSGISGSGGFTYYADSVKGRFTISRDNSKNTLYLQMNSLRAEDTAVYYCAKPPRGYNYGPFDYWGQGTLVTVSS
VL: SYVLTQPPSVSVAPGQTARITCGGNNIGSKSVHWYQQKPGQAPVLVVYDDSDRPSGIPERFSGSNSGNTATLTISRVEAGDEADYYCQVWDSSSDHVVFGGGTKLTVL
notes: Fully human monoclonal antibody with a human constant region of IgG4 isotype
- fold change [1]: 0.816 fold
- fold change [2]: 0.788 fold
- fold change [3]: 1.01 fold
- fold change [4]: 1.05 fold
- fold change [5]: 0.813 fold
- fold change [6]: 0.974 fold
- fold change [7]: 1.05 fold
- fold change [8]: 0.723 fold
- fold change [9]: 0.811 fold
- fold change [10]: 0.838 fold
- fold change [11]: 0.848 fold
- fold change [12]: 0.701 fold
- fold change [13]: 1.15 fold
- fold change [14]: 0.842 fold
- fold change [15]: 1.01 fold
- fold change [16]: 0.87 fold
- fold change [17]: 0.988 fold
- fold change [18]: 0.569 fold
- fold change [19]: 0.756 fold
- fold change [20]: 1.07 fold
- fold change [21]: 0.974 fold
- fold change [22]: 0.979 fold
- fold change [23]: 0.853 fold
- fold change [24]: 0.924 fold
- fold change [25]: 0.863 fold
- fold change [26]: 0.918 fold

— patent US20250313634A1 (WUXI BIOLOGICS SHANGHAI, published 2025)
